{"source": "paper doi:10.1101/172908", "about": "(bioRxiv, 2017)", "proteins": {"B1": {"name": "rat Kir6.2 (natural protein)", "chain": "MLSRKGIIPEEYVLTRLAEDPTEPRYRTRERRARFVSKKGNCNVAHKNIREQGRFLQDVFTTLVDLKWPHTLLIFTMSFLCSWLLFAMVWWLIAFAHGDLAPGEGTNVPCVTSIHSFSSAFLFSIEVQVTIGFGGRMVTEECPLAILILIVQNIVGLMINAIMLGCIFMKTAQAHRRAETLIFSKHAVITLRHGRLCFMLRVGDLRKSMIISATIHMQVVRKTTSPEGEVVPLHQVDIPMENGVGGNSIFLVAPLIIYHVIDSNSPLYDLAPSDLHHHQDLEIIVILEGVVETTGITTQARTSYLADEILWGQRFVPIVAEEDGRYSVDYSKFGNTVKVPTPLCTARQLDEDRSLLDALTLASSRGPLRKRSVAVAKAKPKFSISPDSLS"}}, "target": "the molecule itself", "experiment": "cryo-EM structure"}
{"protein": "B1", "values": [{"measurement": "stoichiometry N", "result": 4}]}
